Measured values as given in doi:10.1101/2022.07.11.499577 (bioRxiv, 2022).

B1: Eaf1 (natural protein)
chain: MSSRPSSAVPNSASLSEDQSSDRSKFPKADDLIDERDRKLTELYCVSRLNQLLELTDENKLRKEIDAFLKKNDIRRGIRFDEASLPKLLHTAATPITKKKLKDVNLINVPNQRLSDSKMSRELPENSENVSVKSESHFVPSHDNSIRENMMDSLRPAEKTGGMWNKRPLESTMGGEEERHEKRQKMQSQSLESSNNSEMASLPISPRPPVPNALAHYTYYENIEYPPADPTEVQPAVKFKDPLIKNIMAKEIDTSDHYNENNVDALETVFLLMNDYIPSKIPQALPLAELKYMSQTLPLINLIPRAHKALTTNIINNALNEARITVVGSRIEELRRLGLWSLRQPKRFIDPWKQHNTHQNILLEEAKWMQADFKEGHKYKVAICTAMAQAIKDYWTYGEICCVKRKTLLPGKENKLSDDGRISEKSGRPSDTSRNDSDISIAGKDDIGIIANVDDITEKESAAANDNDENGKNEAGAKSDFDFADGLLSQEGAHDQIISSIDTKLLLKKPSSSSEVVLIQHEVAASSALIETEESKKELAPPFKLSIFVDELNTFEKTLIQDLPLYNGINEERPKKDDSLPFIPISKSVVSLDDNGFYKLLERQLIDEEPSISQLSKRRGMFYGNRRNHYLRPPAVPSLRYLQNRTPTIWLSEDDQELVKNINTYGYNWELISAHMTHRLTYSYLSNIERRTPWQCFERFVQLNERFNFSDLKGPRAHSAQQWLIEAHKFQQRQNRRISPLGVNTESIQRGHRRLRWASMFEAIRKCMKKRENTPRPNPTQPRKPLDCKNMKVPTPAEMSLLKAQRDEALRRDIQLRRTVKNRLQQRQQQSQQAHSSRAQSPIPSNGKSSSNLARNGQASAPRPNQKQYTEQDIIESYSRKLLEQKPDIGPEMALKAAKNYYRTLREQQQQLKQHQIQQQRQQLQEESSHVQQLQQLQPGSQAPPPKSSPSQSSLSNISNINSAPRIKSPTPQEILQRFQKQ

Key:
[1] = target: B1; experiment: affinity purification with mass spectrometry
[2] = target: Tra1 (S. cerevisiae, UniProt P38811 1-3744); experiment: cryo-EM structure
Sequence of Tra1 (P38811 whole entry): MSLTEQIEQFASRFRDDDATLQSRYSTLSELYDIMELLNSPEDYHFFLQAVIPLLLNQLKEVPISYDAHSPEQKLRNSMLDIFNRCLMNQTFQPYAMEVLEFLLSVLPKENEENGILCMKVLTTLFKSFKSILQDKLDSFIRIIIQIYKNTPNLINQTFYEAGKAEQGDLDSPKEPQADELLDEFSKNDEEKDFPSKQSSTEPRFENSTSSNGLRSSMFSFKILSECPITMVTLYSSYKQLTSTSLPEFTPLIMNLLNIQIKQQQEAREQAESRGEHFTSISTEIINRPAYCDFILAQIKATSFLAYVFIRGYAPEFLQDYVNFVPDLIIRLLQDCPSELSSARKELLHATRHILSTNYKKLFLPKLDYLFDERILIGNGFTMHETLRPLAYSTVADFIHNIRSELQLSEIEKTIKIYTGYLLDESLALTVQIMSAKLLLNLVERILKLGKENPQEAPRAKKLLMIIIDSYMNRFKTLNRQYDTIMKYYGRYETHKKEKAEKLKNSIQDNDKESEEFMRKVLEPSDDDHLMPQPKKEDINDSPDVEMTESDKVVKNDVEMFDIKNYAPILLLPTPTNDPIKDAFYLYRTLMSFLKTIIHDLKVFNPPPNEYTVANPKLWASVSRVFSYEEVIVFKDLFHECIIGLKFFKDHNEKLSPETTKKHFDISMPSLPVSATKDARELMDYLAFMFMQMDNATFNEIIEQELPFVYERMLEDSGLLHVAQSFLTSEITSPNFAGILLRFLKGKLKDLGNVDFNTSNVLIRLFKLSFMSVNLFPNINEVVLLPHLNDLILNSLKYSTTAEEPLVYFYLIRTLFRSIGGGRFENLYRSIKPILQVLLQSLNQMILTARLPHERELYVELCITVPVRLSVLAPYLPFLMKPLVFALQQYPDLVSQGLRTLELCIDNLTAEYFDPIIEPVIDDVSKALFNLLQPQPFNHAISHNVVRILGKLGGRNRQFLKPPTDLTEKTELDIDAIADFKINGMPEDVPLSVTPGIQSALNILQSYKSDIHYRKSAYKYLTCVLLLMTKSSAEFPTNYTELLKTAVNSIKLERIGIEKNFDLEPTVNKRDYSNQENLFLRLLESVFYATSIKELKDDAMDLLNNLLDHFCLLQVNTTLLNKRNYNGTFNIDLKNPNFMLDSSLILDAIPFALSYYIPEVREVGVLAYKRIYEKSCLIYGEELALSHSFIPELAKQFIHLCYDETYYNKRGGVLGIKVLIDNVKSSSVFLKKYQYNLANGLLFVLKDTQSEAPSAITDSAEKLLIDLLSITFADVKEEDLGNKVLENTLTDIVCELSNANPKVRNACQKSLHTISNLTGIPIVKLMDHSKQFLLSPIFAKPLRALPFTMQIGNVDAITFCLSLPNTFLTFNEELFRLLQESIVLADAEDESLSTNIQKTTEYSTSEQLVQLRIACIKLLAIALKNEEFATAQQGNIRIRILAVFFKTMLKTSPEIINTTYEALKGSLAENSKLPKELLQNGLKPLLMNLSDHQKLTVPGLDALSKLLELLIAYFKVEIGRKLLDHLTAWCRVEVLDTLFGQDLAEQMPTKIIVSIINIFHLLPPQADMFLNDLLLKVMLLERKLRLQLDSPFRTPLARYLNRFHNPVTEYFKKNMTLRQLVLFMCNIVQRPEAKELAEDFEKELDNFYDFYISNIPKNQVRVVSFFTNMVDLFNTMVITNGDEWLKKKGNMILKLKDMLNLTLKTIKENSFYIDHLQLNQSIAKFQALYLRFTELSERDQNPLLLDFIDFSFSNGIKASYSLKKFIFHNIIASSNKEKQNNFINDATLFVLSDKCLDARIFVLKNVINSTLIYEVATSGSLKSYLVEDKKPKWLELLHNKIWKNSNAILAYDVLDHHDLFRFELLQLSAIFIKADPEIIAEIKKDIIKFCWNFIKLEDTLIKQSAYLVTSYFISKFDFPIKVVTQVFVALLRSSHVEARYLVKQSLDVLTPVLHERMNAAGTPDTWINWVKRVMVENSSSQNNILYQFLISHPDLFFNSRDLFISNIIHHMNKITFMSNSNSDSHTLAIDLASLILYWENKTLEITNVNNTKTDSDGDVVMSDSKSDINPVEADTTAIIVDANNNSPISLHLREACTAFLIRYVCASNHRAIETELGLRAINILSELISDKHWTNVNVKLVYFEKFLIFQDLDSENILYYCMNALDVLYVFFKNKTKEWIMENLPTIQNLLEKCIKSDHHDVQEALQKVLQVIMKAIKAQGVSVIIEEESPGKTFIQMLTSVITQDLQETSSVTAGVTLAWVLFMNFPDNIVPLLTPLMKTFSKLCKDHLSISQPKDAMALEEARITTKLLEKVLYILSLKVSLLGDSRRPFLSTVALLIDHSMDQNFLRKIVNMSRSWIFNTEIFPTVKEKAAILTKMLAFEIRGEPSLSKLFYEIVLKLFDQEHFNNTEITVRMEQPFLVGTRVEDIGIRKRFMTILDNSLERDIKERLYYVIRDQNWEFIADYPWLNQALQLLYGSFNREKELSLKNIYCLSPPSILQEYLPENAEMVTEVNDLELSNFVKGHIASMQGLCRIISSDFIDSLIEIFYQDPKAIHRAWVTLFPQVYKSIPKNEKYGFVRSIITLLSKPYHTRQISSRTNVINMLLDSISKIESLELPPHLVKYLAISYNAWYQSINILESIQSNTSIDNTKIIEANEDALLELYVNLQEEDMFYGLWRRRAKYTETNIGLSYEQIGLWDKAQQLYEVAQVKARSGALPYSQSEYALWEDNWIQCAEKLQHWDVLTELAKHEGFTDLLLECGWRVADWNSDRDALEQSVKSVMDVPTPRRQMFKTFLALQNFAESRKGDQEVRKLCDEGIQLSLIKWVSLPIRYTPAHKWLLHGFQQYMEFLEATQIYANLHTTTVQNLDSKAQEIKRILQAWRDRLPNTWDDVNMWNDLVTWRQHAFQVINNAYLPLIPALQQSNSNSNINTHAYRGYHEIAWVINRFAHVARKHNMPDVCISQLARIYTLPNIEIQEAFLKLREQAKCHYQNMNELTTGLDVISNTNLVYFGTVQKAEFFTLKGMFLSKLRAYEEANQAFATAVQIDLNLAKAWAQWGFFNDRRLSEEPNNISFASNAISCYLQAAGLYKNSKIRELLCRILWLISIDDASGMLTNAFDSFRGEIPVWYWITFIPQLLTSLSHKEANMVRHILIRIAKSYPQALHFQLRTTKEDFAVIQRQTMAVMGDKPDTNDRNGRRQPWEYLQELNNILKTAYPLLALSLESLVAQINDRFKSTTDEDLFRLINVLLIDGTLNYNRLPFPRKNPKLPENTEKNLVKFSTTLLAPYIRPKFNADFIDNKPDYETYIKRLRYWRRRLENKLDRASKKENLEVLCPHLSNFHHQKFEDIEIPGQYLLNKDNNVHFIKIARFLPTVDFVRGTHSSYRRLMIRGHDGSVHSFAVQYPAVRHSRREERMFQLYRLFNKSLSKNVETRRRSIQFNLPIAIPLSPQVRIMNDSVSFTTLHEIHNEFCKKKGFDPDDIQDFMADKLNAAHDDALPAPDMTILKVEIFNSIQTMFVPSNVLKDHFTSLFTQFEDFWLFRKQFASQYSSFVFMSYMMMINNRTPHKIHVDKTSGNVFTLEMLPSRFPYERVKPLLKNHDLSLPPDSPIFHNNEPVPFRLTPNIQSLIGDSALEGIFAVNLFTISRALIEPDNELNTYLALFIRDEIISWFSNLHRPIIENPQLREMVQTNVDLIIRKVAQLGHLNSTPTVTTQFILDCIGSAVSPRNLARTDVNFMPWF

[3] = target: B1; experiment: cryo-EM structure

Row | Binder | binding result [1] | binding result [2] | binding result [3]
1 | Epl1 with a TAP tag fused to the C-terminus (natural protein) MPTPSNAIEINDGSHKSGRSTRRSGSRSAHDDGLDSFSKGDSGAGASAGSSNSRFRHRKISVKQHLKIYLPNDLKHLDKDELQQREVVEIETGVEKNEEKEVHLHRILQMGSGHTKHKDYIPTPDASMTWNEYDKFYTGSFQETTSYIKFSATVEDCCGTNYNMDERDETFLNEQVNKGSSDILTEDEFEILCSSFEHAIHERQPFLSMDPESILSFEELKPTLIKSDMADFNLRNQLNHEINSHKTHFITQFDPVSQMNTRPLIQLIEKFGSKIYDYWRERKIEVNGYEIFPQLKFERPGEKEEIDPYVCFRRREVRHPRKTRRIDILNSQRLRALHQELKNAKDLALLVAKRENVSLNWINDELKIFDQRVKIKNLKRSLNISGEDDDLINHKRKRPTIVTVEQREAELRKAELKRAAAAAAAAKAKNNKRNNQLEDKSSRLTKQQQQQLLQQQQQQQQNALKTENGKQLANASSSSTSQPITSHVYVKLPSSKIPDIVLEDVDALLNSKEKNARKFVQEKMEKRKIEDADVFFNLTDDPFNPVFDMSLPKNFSTSNVPFASIASSKFQIDRSFYSSHLPEYLKGISDDIRIYDSNGRSRNKDNYNLDTKRIKKTELYDPFQENLEIHSREYPIKFRKRVGRSNIKYVDRMPNFTTSSTKSACSLMDFVDFDSIEKEQYSREGSNDTDSINVYDSKYDEFVRLYDKWKYDSPQNEYGIKFSDEPARLNQISNDTQVIRFGTMLGTKSYEQLREATIKYRRDYITRLKQKHIQHLQQQQQQQQQQQQQAQQQKQKSQNNNSNSSNSLKKLNDSLINSEAKQNSSITQKNSS | binds |  | 
2 | Eaf2/Swc4 (natural protein) MSSSDIFDVLNIKQKSRSPTNGQVSVPSSSAANRPKPQVTGMQRELFNLLGENQPPVVIKSGNNFKEKMLSTSKPSPWSFVEFKANNSVTLRHWVKGSKELIGDTPKESPYSKFNQHLSIPSFTKEEYEAFMNENEGTQKSVESEKNHNENFTNEKKDESKNSWSFEEIEYLFNLCKKYDLRWFLIFDRYSYNNSRTLEDLKEKFYYTCRNYFKASDPSNPLLSSLNFSAEKEIERKKYLQRLLSRSAAEIAEEEALVVESKKFEMAAKRTLAERESLLRLLDSPHSDQTITQYLTSQGMSQLYNALLADKTRKRKHDLNIPENPWMKQQQQFAQHRQLQQLNVKKSEVKENLSPKKTKRQRQEMQTALKRKSESAYAEQLLKDFNSDERKALGVITHGEKLSPGVYLRSTKLSTFKPALQNKILAILQELSLPSRPVMPSFDVMERQEELLKKINTLIDLKKHVDKYEAGMSITK |  | binds | binds
3 | B1 |  | binds | 
